Results reported in patent US20250320281A1.

Tests used:
[1] = target: HIV-1 Env of isolate MGRM-Chronic-B-003, clade B, on pseudovirus (HIV-1); test: cell-based or functional assay
[2] = target: HIV-1 Env of pseudovirus 92TH021 (clade CRF01_AE) (HIV-1); test: cell-based or functional assay
[3] = target: HIV-1 Env of pseudovirus MGRM-Chronic-B-017 (HIV-1); test: cell-based or functional assay
[4] = target: HIV-1 Env of pseudovirus MGRM-F1-013 (HIV-1); test: cell-based or functional assay
[5] = target: HIV-1 Env of pseudovirus MGRM-F1-020 (HIV-1); test: cell-based or functional assay
[6] = target: HIV-1 envelope glycoprotein (Env) of isolate MGRM-A-003, clade A (HIV-1); test: cell-based or functional assay
[7] = target: HIV-1 92TH021 Env on pseudotyped virus (HIV-1 isolate 92TH021); test: cell-based or functional assay
[8] = target: HIV-1 93IN905 Env on pseudotyped virus (HIV-1 isolate 93IN905); test: cell-based or functional assay
[9] = target: HIV-1 94UG103 Env on pseudotyped virus (HIV-1 isolate 94UG103); test: cell-based or functional assay
[10] = target: HIV-1 JR-CSF Env on pseudotyped virus (HIV-1 isolate JR-CSF) (UniProt P20871); test: cell-based or functional assay
[11] = target: HIV-1 NL43 Env on pseudotyped virus (HIV-1 NL43); test: cell-based or functional assay
[12] = target: HIV-1 Env of isolate 92UG024 (HIV-1); test: cell-based or functional assay
[13] = target: HIV-1 Env of isolate MGRM-AE-007 (subtype AE) (HIV-1); test: cell-based or functional assay
[14] = target: HIV-1 JRCSF Env (pseudovirus, clade B) (HIV-1) (UniProt P20871); test: cell-based or functional assay
[15] = target: HIV-1 Env of isolate 92UG037 (subtype A) (HIV-1); test: cell-based or functional assay
[16] = target: HIV-1 Env of isolate 92WR020 (subtype A) (HIV-1); test: cell-based or functional assay
[17] = target: HIV-1 Env of isolate 92WR021 (subtype A) (HIV-1); test: cell-based or functional assay
[18] = target: HIV-1 Env of isolate 92WR024 (subtype A) (HIV-1); test: cell-based or functional assay
[19] = target: HIV-1 Env of isolate 92WR026 (subtype A) (HIV-1); test: cell-based or functional assay
[20] = target: HIV-1 Env of isolate 93UG077 (subtype A) (HIV-1); test: cell-based or functional assay
[21] = target: HIV-1 Env of isolate 93WR029 (subtype A) (HIV-1); test: cell-based or functional assay
[22] = target: HIV-1 Env of isolate 94 KE 105 (subtype AC) (HIV-1); test: cell-based or functional assay
[23] = target: HIV-1 Env of isolate 94UG103 (subtype A) (HIV-1); test: cell-based or functional assay
[24] = target: HIV-1 envelope glycoprotein (Env) of isolate 6535.3 (HIV-1); test: cell-based or functional assay
[25] = target: HIV-1 envelope glycoprotein (Env) of isolate 92BR020 (HIV-1); test: cell-based or functional assay
[26] = target: HIV-1 envelope glycoprotein (Env) of isolate 93TH305 (HIV-1); test: cell-based or functional assay
[27] = target: HIV-1 envelope glycoprotein (Env) of isolate APV_13 (HIV-1); test: cell-based or functional assay
[28] = target: HIV-1 envelope glycoprotein (Env) of isolate APV_17 (HIV-1); test: cell-based or functional assay
[29] = target: HIV-1 envelope glycoprotein (Env) of isolate APV_6 (HIV-1); test: cell-based or functional assay
[30] = target: HIV-1 envelope glycoprotein (Env) of isolate MGRM-Chronic-B-001 (HIV-1); test: cell-based or functional assay
[31] = target: HIV-1 envelope glycoprotein (Env) of isolate MGRM-Chronic-B-002 (HIV-1); test: cell-based or functional assay
[32] = target: HIV-1 envelope glycoprotein (Env) of isolate MGRM-Chronic-B-004 (HIV-1); test: cell-based or functional assay
[33] = target: HIV-1 Env of isolate MGRM-Chronic-B-008 (subtype B pseudovirus) (HIV-1); test: cell-based or functional assay
[34] = target: HIV-1 Env of isolate MGRM-F1-018 (HIV-1); test: cell-based or functional assay
[35] = target: JR-FL gp120 ΔV1/ΔV2 (HIV-1); test: ELISA, antigen-coated wells

Sequence of 4993_K13 (PGT-141) (antibody) (VH): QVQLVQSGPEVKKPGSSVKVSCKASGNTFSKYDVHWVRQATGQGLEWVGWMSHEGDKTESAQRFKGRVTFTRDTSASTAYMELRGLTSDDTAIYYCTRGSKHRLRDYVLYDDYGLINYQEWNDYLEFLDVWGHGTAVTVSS
Sequence of 4993_K13 (PGT-141) (antibody) (VL): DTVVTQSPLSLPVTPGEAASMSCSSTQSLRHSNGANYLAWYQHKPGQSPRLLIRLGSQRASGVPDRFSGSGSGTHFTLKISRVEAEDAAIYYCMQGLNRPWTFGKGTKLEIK
Sequence of 1443_C16 (PG16) (TCN-116) (antibody) (VH): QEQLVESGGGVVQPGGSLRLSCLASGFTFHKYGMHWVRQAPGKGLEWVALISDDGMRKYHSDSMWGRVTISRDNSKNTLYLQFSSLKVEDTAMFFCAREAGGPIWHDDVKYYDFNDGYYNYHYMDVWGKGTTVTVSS
Sequence of 1443_C16 (PG16) (TCN-116) (antibody) (VL): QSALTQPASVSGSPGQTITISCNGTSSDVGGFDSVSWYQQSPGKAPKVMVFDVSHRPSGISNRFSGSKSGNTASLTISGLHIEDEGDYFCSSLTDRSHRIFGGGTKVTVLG

Substance: 2G12 (antibody)
- IC50 (µg/ml), pseudovirus neutralization [1]: 0.06 µg/mL
- IC50 [2]: > 50 µg/mL
- IC50 (µg/ml), pseudovirus neutralization [3]: > 50 µg/mL
- IC50 (µg/ml), pseudovirus neutralization [4]: > 50 µg/mL
- IC50 (µg/ml), pseudovirus neutralization [5]: > 50 µg/mL
- IC50 (µg/ml), pseudovirus neutralization [6]: > 50 µg/mL

Substance: 1443_C16 (PG16) (TCN-116) (antibody)
- Neutralizing Antibody Assay: IC50; Virus/Ab Incubation 1 hour [7]: 0.136 µg/mL
- Neutralizing Antibody Assay: IC50; Virus/Ab Incubation 18 hour [7]: 0.0435 µg/mL
- Neutralizing Antibody Assay: IC50; Virus/Ab Incubation 1 hour [8]: 0.33 µg/mL
- Neutralizing Antibody Assay: IC50; Virus/Ab Incubation 18 hour [8]: 0.255 µg/mL
- Neutralizing Antibody Assay: IC50; Virus/Ab Incubation 1 hour [9]: 0.0211 µg/mL
- Neutralizing Antibody Assay: IC50; Virus/Ab Incubation 18 hour [9]: 0.0085 µg/mL
- IC50 (µg/ml), pseudovirus neutralization [1]: 0.19 µg/mL
- IC50 [2]: 0.1 µg/mL
- IC50 (µg/ml), pseudovirus neutralization [3]: 0.02 µg/mL
- IC50 (µg/ml), pseudovirus neutralization [5]: 4.35 µg/mL
- Neutralizing Antibody Assay: IC50; Virus/Ab Incubation 1 hour [10]: < 0.0025 µg/mL
- Neutralizing Antibody Assay: IC50; Virus/Ab Incubation 18 hour [10]: < 0.0025 µg/mL
- Neutralizing Antibody Assay: IC50; Virus/Ab Incubation 1 hour [11]: < 0.0025 µg/mL
- Neutralizing Antibody Assay: IC50; Virus/Ab Incubation 18 hour [11]: 4.99 µg/mL
- IC50 (µg/ml), pseudovirus neutralization [6]: 2.65 µg/mL

Substance: 5147_N06 (PGT-130) (antibody)
- IC50 (µg/mL), pseudovirus neutralization [12]: > 50 µg/mL
- IC50 (µg/mL), pseudovirus neutralization [13]: 0.083 µg/mL
- IC50 neutralization [14]: 0.0089 µg/mL

Substance: 5136_H01 (PGT-131) (antibody)
- IC50 (µg/mL), pseudovirus neutralization [12]: > 50 µg/mL
- IC50 (µg/mL), pseudovirus neutralization [13]: 0.026 µg/mL

Substance: 2F5 (antibody)
- IC50 (µg/ml), pseudovirus neutralization [1]: 1 µg/mL
- IC50 (µg/ml), pseudovirus neutralization [3]: > 50 µg/mL
- IC50 (µg/ml), pseudovirus neutralization [4]: 4.57 µg/mL
- IC50 (µg/ml), pseudovirus neutralization [5]: 0.59 µg/mL
- IC50 (µg/ml), pseudovirus neutralization [6]: 7.37 µg/mL

Substance: 4E10 (antibody)
- IC50 (µg/ml), pseudovirus neutralization [1]: 3.5 µg/mL
- IC50 [2]: 1.17 µg/mL
- IC50 (µg/ml), pseudovirus neutralization [3]: 2.77 µg/mL
- IC50 (µg/ml), pseudovirus neutralization [5]: 0.66 µg/mL
- IC50 (µg/ml), pseudovirus neutralization [6]: 5.94 µg/mL

Substance: 4993_K13 (PGT-141) (antibody)
- IC50 (µg/mL), pseudovirus neutralization [15]: 1.28 µg/mL
- IC50 (µg/mL), pseudovirus neutralization [16]: > 50 µg/mL
- IC50 (µg/mL), pseudovirus neutralization [17]: > 50 µg/mL
- IC50 (µg/mL), pseudovirus neutralization [18]: 0.175 µg/mL
- IC50 (µg/mL), pseudovirus neutralization [19]: 1.78 µg/mL
- IC50 (µg/mL), pseudovirus neutralization [20]: > 50 µg/mL
- IC50 (µg/mL), pseudovirus neutralization [21]: 0.019 µg/mL
- IC50 (µg/mL), pseudovirus neutralization [22]: 0.204 µg/mL
- IC50 (µg/mL), pseudovirus neutralization [23]: > 50 µg/mL
- IC50 (µg/mL), pseudovirus neutralization [24]: > 50 µg/mL
- IC50 (µg/mL), pseudovirus neutralization [25]: 20.3 µg/mL
- IC50 (µg/mL), pseudovirus neutralization [26]: > 50 µg/mL
- IC50 (µg/mL), pseudovirus neutralization [27]: > 50 µg/mL
- IC50 (µg/mL), pseudovirus neutralization [28]: 0.59 µg/mL
- IC50 (µg/mL), pseudovirus neutralization [29]: 14.2 µg/mL
- IC50 (µg/mL), pseudovirus neutralization [30]: > 50 µg/mL
- IC50 (µg/mL), pseudovirus neutralization [31]: > 50 µg/mL
- IC50 (µg/mL), pseudovirus neutralization [32]: 0.586 µg/mL

Substance: 4838_L06 (PGT-121) (antibody)
- IC50 (µg/mL), pseudovirus neutralization [33]: 0.007 µg/mL
- IC50 (µg/mL), pseudovirus neutralization [34]: 0.04 µg/mL
- EC50 [35]: 0.2 µg/mL
